US20250277026A1 (NOVAROCK BIOTHERAPEUTICS, published 2025)

Tests used:
human Claudin-6 [1] = molecular target: T1, human Claudin-6 (human, UniProt P56747 1-220); assay: FACS, NEC8 cells (endogenous CLDN6), 10 µg/ml, hybridoma-purified antibody
T1 construct: also called CLDN6
T1 sequence: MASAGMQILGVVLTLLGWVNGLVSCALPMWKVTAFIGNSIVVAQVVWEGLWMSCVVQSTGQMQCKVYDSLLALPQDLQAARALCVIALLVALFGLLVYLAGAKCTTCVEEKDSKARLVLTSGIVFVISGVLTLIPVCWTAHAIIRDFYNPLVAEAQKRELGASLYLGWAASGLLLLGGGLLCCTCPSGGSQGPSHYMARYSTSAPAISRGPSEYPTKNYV
Method: (§1) Cells were fixed with 2% PFA (Alfa Aesar, catalog number: J61899) for 15 minutes at 4° C. and then washed. […] Flow cytometric analyses were performed on a flow cytometry instrument (Intellicyte, IQue plus, Sartorius).

human Claudin-6 [2] = molecular target: T1, human Claudin-6; assay: FACS dose response, Claudin-6-CHO-K1 cells, hybridoma-purified antibody
Method: (§2) The anti-CLDN6 antibodies were also evaluated for their binding affinity to Claudin-6 overexpressing cell lines by FACS.

human Claudin-3 = molecular target: T2, human Claudin-3 (human, UniProt O15551 1-220); assay: FACS, CHO-K1 cells overexpressing Claudin-3 (CHO-K1-CLDN3), serial dilution, MFI
T2 construct: On transfected CHO-K1 cells, or endogenous on MCF7 cells; also called CLDN3
T2 sequence: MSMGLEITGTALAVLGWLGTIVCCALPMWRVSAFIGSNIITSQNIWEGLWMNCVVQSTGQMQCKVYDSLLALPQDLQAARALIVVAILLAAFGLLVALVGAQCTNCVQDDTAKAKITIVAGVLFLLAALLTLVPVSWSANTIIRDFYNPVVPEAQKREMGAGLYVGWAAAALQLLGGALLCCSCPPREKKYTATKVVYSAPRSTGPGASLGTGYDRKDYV

human Claudin-9 = molecular target: T3, human Claudin-9 (human, UniProt O95484 1-217); assay: FACS, Claudin-9-HEK293 cells, 10 µg/ml, hybridoma-purified antibody
T3 construct: On transfected HEK293 cells; also called CLDN9
T3 sequence: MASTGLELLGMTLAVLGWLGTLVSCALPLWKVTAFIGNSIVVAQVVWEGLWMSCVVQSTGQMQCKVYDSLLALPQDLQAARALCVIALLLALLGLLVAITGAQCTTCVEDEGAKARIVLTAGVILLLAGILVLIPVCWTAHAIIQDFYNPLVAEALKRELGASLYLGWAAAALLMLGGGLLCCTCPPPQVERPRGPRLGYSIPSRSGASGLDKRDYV

human Claudin-6 [3] = molecular target: T1, human Claudin-6; assay: FACS dose response, Claudin-6-HEK293 cells, hybridoma-purified antibody
Method: as §2

human Claudin-6 [4] = molecular target: T1, human Claudin-6; assay: FACS dose response, NEC8 cells (endogenous CLDN6), hybridoma-purified antibody
Method: as §1, §2

human Claudin-6 [5] = molecular target: T1, human Claudin-6; assay: FACS, Claudin-6-HEK293 cells, 10 µg/ml, hybridoma-purified antibody

fold MFI over isotype control (human Claudin-6 [1]): 23 fold
EC50 (human Claudin-6 [2]): 3.06 nM
fold MFI over isotype control (human Claudin-9): 47 fold
EC50 (human Claudin-6 [3]): 4.11 nM
EC50 (human Claudin-6 [4]): 5.63 nM
fold MFI over isotype control (human Claudin-6 [5]): 60 fold
B1: NR.N6.Ab6 (antibody, V domains shown)
VH: QVQLQESGPGLVKPSETLSLTCTVSGGSISSYYWSWIRQPPGKGLEWIGYIYYSGSTNYNPSLKSRVTISLDTSKNQFSLKLTSVTAADTAVYYCARGSIPVAGTSYFYYYGMDVWGQGTTVTVSS
VL: EIVMTQSPATLSLSPGERATLSCRASQSVSSSYLSWYQQKPGQAPRLLIYGASTRATGIPARFSGSGSGTDFTLTISSLQPEDFAVYYCQQDYNLPWTFGQGTKVEIK
binding result (human Claudin-3): no binding (tested: log 1.8 (about 67 nM))
